Positions count from the first letter of the chain named. Several values for one entry are separate records, joined by “and”; a condition that tells them apart may be missing. Identical values can stand only once. Like-named read-outs stand apart in the source and are kept apart here.
T1: rhesus macaque IL-1β (rhesus macaque, UniProt P48090 117-269)
T1 sequence (looked up): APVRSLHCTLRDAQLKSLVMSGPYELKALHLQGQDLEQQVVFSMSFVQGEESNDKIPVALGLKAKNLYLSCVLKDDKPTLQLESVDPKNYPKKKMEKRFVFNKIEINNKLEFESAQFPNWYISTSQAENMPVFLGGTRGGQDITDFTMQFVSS

T2: guinea pig IL-1β (guinea pig, UniProt Q9WVG1 115-266, limits assumed)
T2 sequence (looked up): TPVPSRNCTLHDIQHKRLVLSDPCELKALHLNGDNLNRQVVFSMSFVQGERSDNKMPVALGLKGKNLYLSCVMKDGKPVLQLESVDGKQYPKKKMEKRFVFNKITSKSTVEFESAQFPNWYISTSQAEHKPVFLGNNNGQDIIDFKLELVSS

T3: dog IL-1β (dog, UniProt Q28292 115-266)
T3 sequence (looked up): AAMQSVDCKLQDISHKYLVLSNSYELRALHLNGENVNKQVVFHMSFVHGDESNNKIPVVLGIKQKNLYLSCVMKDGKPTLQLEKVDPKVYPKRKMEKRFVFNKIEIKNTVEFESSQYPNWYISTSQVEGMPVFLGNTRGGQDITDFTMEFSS

T4: rabbit IL-1β (rabbit, UniProt P14628 117-268)
T4 sequence (looked up): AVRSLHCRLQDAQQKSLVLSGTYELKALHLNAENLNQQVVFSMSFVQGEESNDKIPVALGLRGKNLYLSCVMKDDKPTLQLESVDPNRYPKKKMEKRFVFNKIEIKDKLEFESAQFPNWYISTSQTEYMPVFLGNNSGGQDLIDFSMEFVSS

T5: soluble IL-1 receptor type I (IL-1 sRI) (UniProt P14778 18-336)
T5 construct: extracellular domain; also called IL-1RI
T5 sequence (looked up): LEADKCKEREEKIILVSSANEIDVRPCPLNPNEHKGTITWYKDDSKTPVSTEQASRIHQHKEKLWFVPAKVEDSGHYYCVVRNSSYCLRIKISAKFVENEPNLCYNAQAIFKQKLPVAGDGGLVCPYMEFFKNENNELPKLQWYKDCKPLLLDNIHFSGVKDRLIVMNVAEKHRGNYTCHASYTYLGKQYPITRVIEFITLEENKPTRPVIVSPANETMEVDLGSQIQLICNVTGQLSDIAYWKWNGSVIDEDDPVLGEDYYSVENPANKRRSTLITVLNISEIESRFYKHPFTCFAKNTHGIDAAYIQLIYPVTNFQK

B1: AB5 (antibody, V domains shown)
VH: QVTLKESGPGILKPSQTLSLTCSFSGFSLSTSGMGVGWIRQPSGKGLEWLAHIWWDGDESYNPSLKTQLTISKDTSRNQVFLKITSVDTVDTATYFCARNRYDPPWFVDWGQGTLVTVSS
VL: DIQMTQTTSSLSASLGDRVTISCRASQDISNYLSWYQQKPDGTVKLLIYYTSKLHSGVPSRFSGSGSGTDYSLTISNLEQEDIATYFCLQGKMLPWTFGGGTKLEIK
notes: also called AB5 (invention)
B2: AB1 (antibody, V domains shown)
VH: B1 VH with N100A
VL: B1 VL
notes: also called AB1 (invention)
B3: AB-control (antibody, V domains shown)
VH: B1 VH with Q68R, D74N, S86T
VL: B1 VL with S72F
notes: must be checked against the listing
B4: AB7 (antibody, V domains shown)
VH: QVQLQESGPGLVKPSQTLSLTCSFSGFSLSTSGMGVGWIRQPSGKGLEWLAHIWWDGDESYNPSLKSRLTISKDTSKNQVSLKITSVTAADTAVYFCARNRYDPPWFVDWGQGTLVTVSS
VL: DIQMTQSTSSLSASVGDRVTITCRASQDISNYLSWYQQKPGKAVKLLIYYTSKLHSGVPSRFSGSGSGTDYTLTISSLQQEDFATYFCLQGKMLPWTFGQGTKLEIK
notes: Human engineered antibody
B5: AB2 (antibody, V domains shown)
VH: B1 VH with N100V
VL: B1 VL
B6: AB3 (antibody, V domains shown)
VH: B1 VH with N100F
VL: B1 VL

How the values were obtained:
human IL-1β [1] = target: T6, human IL-1β (human, UniProt P01584 117-269); assay: KinExA kinetic exclusion assay
T6 construct: mature; also called recombinant human IL-1β; rhIL-1β
Protocol: KD values represent the binding dissociation constants for the respective antibody-IL-1β complexes. KD was calculated as the ratio of “off rate” (rate of dissociation for the antibody-IL-1β complex) to “on rate” (rate of association for the antibody-IL-1β complex).

human IL-1β [2] = target: T6, human IL-1β; assay: KinExA kinetic exclusion assay; remark: listed apart in the source
Source text: The KINEXA™ device performs a kinetic exclusion assay, and fits the data to various theoretical curves and thus determines KD as well as other properties, such as 95% confidence intervals for KD. The KINEXA™ device is generally more sensitive than other devices (e.g., a BiaCore device) for analysis of affinity characteristics such as dissociation constants and off-rates.

human IL-1β [3] = target: T6, human IL-1β; assay: cell-based or functional assay
human IL-1β [4] = target: T6, human IL-1β; assay: cell-based or functional assay; remark: listed apart in the source
human IL-1β [5] = target: T6, human IL-1β; assay: cell-based or functional assay; remark: listed apart in the source
rhesus macaque IL-1β = target: T1, rhesus macaque IL-1β; assay: cell-based or functional assay
guinea pig IL-1β = target: T2, guinea pig IL-1β; assay: immunoprecipitation with AB7 and protein A-Sepharose from PBMC supernatant, Western blot with AB7
Protocol: (§1) Fresh heparanized whole blood from rhesus macaque, cynomolgus monkey, dog, guinea pig and rabbit was obtained from Charles River Labs. The whole blood was separated by Ficoll density gradient centrifugation and peripheral blood mononuclear cells (PBMC's) were isolated. For each species' PBMC, 2.5×10⁵ cells/ml were incubated in peripheral RPMI media with and without 50 ng/ml Lipopolysaccharide LPS (E. Coli 055:B5), and supernatants were collected at 24 hours post-stimulation. LPS is intended to stimulate the production of IL-1β by the PBMC's. […] Human IL-1β (Peprotech) was spiked into RPMI and run as immunoprecipliation/Western blot controls. After centrifugation and washing of the Protein A-Sepharose beads, all samples were loaded onto a SDS-PAGE gel and run at 120V for 1 hour. […] A secondary goat anti-human IgG antibody conjugated with horseradish peroxidase (HRP) was added following wash steps and detection was with one step tetramethyl benzidine (TMB) solution.

dog IL-1β = target: T3, dog IL-1β; assay: immunoprecipitation with AB7 from LPS-stimulated PBMC supernatant, Western blot with AB7 (FIG. 16)
Protocol: as §1

rabbit IL-1β = target: T4, rabbit IL-1β; assay: as above
Protocol: as §1

[6] = target: T5, soluble IL-1 receptor type I (IL-1 sRI); assay: Biacore, AB7 immobilized on CM-5 chip, IL-1 sRI injected
Protocol: Using HBS-EP (Biacore®, Inc.) as running buffer, the temperature was set to 25° C., the flow rate was set to 10 μL/min, and the flow path was directed to flow cell 2 only. 135 μL of each of NHS and ECD solutions (Biacore®, Inc.) were mixed, and 70 μL of the NHS/ECD solution was immediately injected in the flow path. […] To prepare a reference surface, the flow path was changed to flow cell 1 only. 135 μL of each of NHS and ECD solutions (Biacore®, Inc.) were mixed, and 70 μL of the NHS/ECD solution was immediately injected in the flow path, followed by 70 μL 1M Ethanolamine (Biacore®, Inc.).
The flow rate was set to 10 μL/min. The flow path for the Biacore® instrument was set to flow cells 1 and 2, and reference subtraction of flowcell 2 from flowcell 1 was used to determine a response differential.

Row | Binder | Kd (human IL-1β [1]) | IC50, inhibition of IL-1β stimulated release of IL-6 from human MRC5 fibroblasts (human IL-1β [4]) | IC50, inhibition of IL-1β stimulated release of IL-6 from human fibroblasts (FIG. 10) (human IL-1β [5]) | IC50 of an individual assay, IL-6 release from human fibroblasts (human IL-1β [5]) | mean IC50, inhibition of IL-1β stimulated release of IL-6 from human fibroblasts (human IL-1β [5]) | also measured
1 | B1 | 0.000261 nM | 0.014 nM | – | – | – | Kd (human IL-1β [2]): 0.00024 nM; IC50, inhibition of IL-1β stimulated release of IL-6 from human fibroblasts (human IL-1β [3]): 0.0049 nM
2 | B2 | 0.0186 nM | 0.15 nM | 0.029 nM | 0.035 nM and 0.03 nM and 0.052 nM | 0.0667 nM | –
3 | B3 | 0.00306 nM | 0.017 nM | – | 0.005 nM and 0.0049 nM | 0.0089 nM | –
4 | B4 | – | – | – | – | – | mean IC50, inhibition of IL-1β stimulated proliferation of D10.G4.1 cells (10 pg/ml recombinant rhesus IL-1β) (rhesus macaque IL-1β): 0.0027 nM; binding result (guinea pig IL-1β): no binding; binding result (dog IL-1β): binds; binding result (rabbit IL-1β): binds; binding result [6]: no binding (tested: 10 ug/mL)
5 | B5 | – | – | 0.076 nM | – | – | –
6 | B6 | – | – | 0.214 nM | – | – | –
